Reference: the domain aggregation screens of Martell et al. (2025)

Experiment: soluble fraction after stress (log2 fold change); higher = more stays soluble; pooled small domains, quantitative proteomics
Details: stress: 75 degC
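Also: 20 min heating vs room temperature control held 20 min.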

Row | Sequence | soluble fraction (log2)
1 | HMDTITDSYTLEKGKLRAKVMEYELPESKKKEYSATFEYRGVYYHMIGIIEKADFEEILKNLHFP | -0.168
2 | HMSEKIDINNSNELELKQLPLTNEQIKSLIEFRRLHGEIQNIYELKNIDFFNIEKVHELKAHIEIKKII | -1.03
3 | HMPVNEEFKRLIDKIKYEFSINQAQISERLGVKSTYLSDMINGRVPYNESMQKKIHEVFHIG | -0.424
4 | HMGMETQLSPKEKSIYTIIQNRPNIQSGEVSEKLAIPLPTVKRILSDLINKGLIEKQGSGRNVSYTI | 0.338
5 | HMPRENLAYTLIMDGIVQHKNLPRASVTEAWLKQELQKAGINDFRQVLIAGIDSKGQLYFQPKQK | ≥ 1.04
6 | HMTDNSTTTIRNLKIEWLLEEIRNAVRTGVSVDAAVERISNNPFVKPPEDLLNEARIIFLQNAGQI | -0.79
7 | HMKQYVEPASETEKMVVELWEKVLLTEKIGMHDDFFELGGHSLKAMRLISLYHQEFNVRLSLKSLFEKLK | -0.241
8 | HMLSVKEQTYQIIKEKILNQEYPAGARININELAEELGISNSPIREALSLLEQQGLVISNRSSGATVT | -0.176
9 | HMGMTTSILDDVIGMGPKRKKALLKAFGSFGALRNATLEEIKQTHTVPEQVAEDVYAVLVQYNSKSE | -0.681
10 | HMNMVSGHLQIKKGYYYVVLSYYDNRNKRHVKYVSTGLPEKGNKRKAEAALARVRSEFEPPQE | -3.95
11 | HMGALTGQERRAEIMNILRQSTMPLSGAALGKQLGVSRQVVVQDIALLRQSGEEIYATNRGYVTG | -0.417
12 | HMSDESALLELVKQIIADNPKAVEEIRAGKEKAMGFLIGQAMKASRGSANPQIISRLVREQLG | 0.57
13 | HMNKFRVGDEVEIVKLDKTIQHFGGEEVLSPVGTKTYITYVDVTGKEIEIDKDIYSYHADDLTLV | ≥ 1.04
14 | HMLTPSRVLPYLFEDSFFIDTLSLEKDQVVGFLEYIDERLPPQDLMNKSKEFELIDYLINESEAYLSQ | -0.00122
15 | HMDTLRARQEAAYRFLSAIAGDWRNYEEANRALFAGDAARFQDLTESWPADVRDHARHLASAAFSS | -0.8
16 | HMLPYGDRRRHTDNTISRIRELAAALDDSGIADRLNQDGYVTPEGKPFTYAGVRWIRYKYDISGPYERN | -1.91
17 | HMDNIEIGNRIREIRIKKNISVFELAYRTKTSQSHIYQIEGGSQNMSIELLFKIADTLETDPNTILGV | -3.97
18 | HMRVDRSALDSIPGVGPGRKRTLLHHFGSARAVEASGLADLESIRGISKALARKIYDFFHPE | -1.55
19 | HMRDYKTALQEWVQRTPGQPIAYRLVDELGPDHARVFVMEVTVGGQSAGQGRGRTKKEAEQLAARAALEKL | -0.448
20 | HMINKIANLSAELRMEGLPVSIRSTQAAVKIYMDLGGDDRNLLKTALMSIYVKDRYDIPKFNKVFEKLFA | -1.66
21 | HMNTKHVFIIEQDDEKKRLDIFLVEKLQDSRSFLKKGIVEGWVKVNESVVKPNYKLKQKDQITVIIPP | -1.47
22 | HMSGLGELTPRELEVLELMAQGLSNSQIAGRLFLSGAAVAKHVSSIFSKLGFEPGDENRRVRAILAFLNR | -1.41
23 | HMIMVAGHLQIKKGKYYMVLELKSESGERKTKWISTGLSAKGNKRKAEAMLEEARENYQSTDA | -1.13
24 | HMVYFDDEELDRFAGRAADSYTSDETDEFRDVMLTLLPADVMPWTQSIEMRGILLPEQLRDELLML | -0.391
25 | HMNENNFIVAMRERLAQFIETSGTSQSRIAKELGVSKSTVSLFLGGTYGGNNQELARNLEQLLSMGAARR | -1.45
26 | HMFPASQPVPTDLNQIVRAGLEVFSGRLEGIDVRVSLEPELPRVNVDPEHFKRIVVNLVDNAAEAMQNS | 0.183
27 | HMQRDTIAISAIPTAIKTYLSSTYPTDTLVHAFVNKDQSIVVISKNIDFYATSFSTANAFIKRIQLPA | -1.41
28 | HMHLIPRESTYEIDGRRFVVDSVNLDFGKVSLQDITFRNATGFPIFRSESIEFMRRLVEISEAQRIAEL | -0.0447
29 | HMSQPYFELAAADMEALRNALSTIREIESVVLSGKIFHVEVREDLDPGTMNKLAFERGITLTHLVKKKN | -2.89
30 | HMFSLDMDRLVRPGFMASGNVTFSDGVTGKWALDQMGRLALETAQKGYQPSPADVQAFQRELQQQLQRQG | 0.0415
